Results on 2 molecules are retold here after patent publication US20140294815A1 (NVIP, published 2014).

For assay [1], the target named is T1, human TNF (human, UniProt P01375 77-233).
T1 construct: also called huTNF
As to the kind of experiment: binding assay of FIG. 12(a) Panel B.

Assay [2] has as its target T2, canine tumour necrosis factor alpha (canine, UniProt P51742 77-233).
T2 construct: Coated at 5 ug/ml in the ELISA; used at 1 ng/mL in the reporter assay; also called canine TNF; canine TNFa
As to the kind of experiment: binding assay of FIG. 12(a) Panel C, compared with the D2E7 based MAbs.

Assay [3] concerns the target T2, canine tumour necrosis factor alpha. In words: ELISA, canine TNFa coated, antibody 5 ug/ml to 0.05 ug/ml. The method, then:
The resultant supernatants were purified on Protein A, analysed by SDS-PAGE (FIG. 10A) and tested for binding to canine TNFa (coated at 5 ug/ml; R&D systems) at the indicated concentrations of antibody (ug/ml) by ELISA and detected using anti-canine polyclonal antibody-horseradish peroxidase conjugate (Sigma A9042) (FIG. 10B). The negative control was the detection polyclonal on coated antigen alone.
In general terms: ELISA stands for enzyme-linked immunosorbent assay.

T1 sequence (P01375 77-233 limits assumed): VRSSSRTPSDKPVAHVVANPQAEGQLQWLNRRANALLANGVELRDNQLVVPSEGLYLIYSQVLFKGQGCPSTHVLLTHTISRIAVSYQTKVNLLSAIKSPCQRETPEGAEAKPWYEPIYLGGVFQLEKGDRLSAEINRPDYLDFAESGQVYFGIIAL
T2 sequence (P51742 77-233 limits assumed): as the sequence (P01375 77-233 limits assumed) above, with R2K, Q21E, N30S, R44T, V49I, E53D, I83F, A109T, R138L, D140N counted along it

B1: caninised anti-huTNF MAb 148 (SEQ ID NO:18 plus SEQ ID NO:19) (antibody, V domains shown)
VH: EVQLVESGGGVVQPGGSLRLSCAASGFIFSSYAMRWVRQAPGKGLEWVAFMSYDGSNKKYADSVKGRFTISRDNSKNTLYLQMNSLRAEDTAVYYCARDRGIAAGGNYYYYGMDVWGQGTSVTVSS
VL: EIVMTQSPASLSLSPGEKATISCRASQSVYSYLAWYQQKPGQAPRLLIYDASNRATGVPSRFSGSGSGTDFTLTISSLEPEDVAVYYCQQPSNWPPFTFGPGTKVDIKR
notes: Expressed in CHO cells and purified by Protein A chromatography; also called ca148-HCB
In the case of B1, the binding result in assay [1] is “binds”; in assay [2], “no binding”.

B2: caninised anti-TNF monoclonal antibody (SEQ ID NO:3 light chain plus SEQ ID NO:5 heavy chain), based on D2E7 (antibody, V domains shown)
VH: not shown
VL: DIVMTQSPASLSLSQEEKVTITCRASQGIRNYLAWYQQKPGQAPKLLIYAASTLQSGVPSRFSGSGSGTDFTLTISSLEPEDVAVYYCQRYNRAPYTFGQGTKVEIKR
notes: canine IgG-B heavy chain, kappa light chain; also called ca-HCB+ca-kLC; caninised (Ca) D2E7 based MAb
With B2, the binding result in assay [1] and in assay [3] was “binds” each time.
